The target in this assay is Slik coiled-coil C-terminal domain (Slik^CCD) (Drosophila). The experiment in a line: SEC; purified Slik^CCD on a Superdex 75 10/300 column in 20 mM Tris-HCl pH 7.5, 150 mM NaCl, 2 mM DTT; elution peak at 95.45 kDa.

As for “Slik coiled-coil C-terminal domain (Slik^CCD) (domain or fragment)”, the stoichiometry N came out at 2.

For the origin of these results see publication PMC12000455.
